Reference: US20140087995A1 (published 2014)
Numbered stars: 1 amine (or outer) side, 2 acyl side, 3 side chain; on linkers, the order of the positions; unused ones are H or OH. Bridge positions count the residues as written; N and C are the ends. Side chains are listed from the residue outwards. Ends that are not written are not given here. * marks the point of attachment. C20 diacid = O=C(O)CCCCCCCCCCCCCCCCCCC(=O)*; γGlu = O=C(O)[C@H](CCC(=O)[*:2])N[*:1]

T1: human calcitonin receptor (human, UniProt P30988 25-474)
T1 construct: whole, on cells; Assayed as cell membranes of BHK tk'ts 13 cells stably transfected with the human calcitonin receptor (Assay VII); also called hCTR; hCT
T1 sequence (looked up): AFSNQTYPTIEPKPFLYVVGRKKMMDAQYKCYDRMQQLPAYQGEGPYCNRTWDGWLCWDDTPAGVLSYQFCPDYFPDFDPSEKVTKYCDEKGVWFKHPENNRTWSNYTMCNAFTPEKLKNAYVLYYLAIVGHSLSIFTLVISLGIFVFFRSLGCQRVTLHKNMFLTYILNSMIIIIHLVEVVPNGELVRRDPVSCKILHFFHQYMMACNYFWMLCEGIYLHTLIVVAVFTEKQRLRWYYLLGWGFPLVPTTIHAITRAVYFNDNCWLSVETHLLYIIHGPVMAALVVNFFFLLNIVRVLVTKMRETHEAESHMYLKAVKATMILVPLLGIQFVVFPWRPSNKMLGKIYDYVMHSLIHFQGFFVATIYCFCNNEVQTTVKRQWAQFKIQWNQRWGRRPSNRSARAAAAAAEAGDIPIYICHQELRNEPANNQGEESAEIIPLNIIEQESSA


What was measured:
[1] = biological target: T1, human calcitonin receptor; assay: IC50 at hCTR divided by IC50 at hAmylin-R (SPA competition assays V and VII)
Summary of the method: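 Scintillation proximity competition binding on cell membranes at 35 ng/μL with SPA beads, in 50 mM Hepes pH 7.4, 1 mM CaCl2, 5 mM MgCl₂, 0.1% OA, 0.02% Tween20. Incubated 120 min at 25° C with shaking. IC₅₀ from one-site competition fit.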

[2] = biological target: T1, human calcitonin receptor; assay: SPA competition vs 125I-calcitonin, membranes of BHK cells with human calcitonin receptor (Assay VII)
Summary of the method: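 BHK hCTR membranes 35 ng/μL + SPA beads 0.05 mg/well; buffer 50 mM Hepes pH 7.4, 1 mM CaCl2, 5 mM MgCl₂, 0.1% OA, 0.02% Tween20. 120 min, 25° C., shaking. Scintillation count; IC50 by one-site binding competition.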

| Ratio hCT/hAmylin binding [1] | IC50 [2] | Binder |
| --- | --- | --- |
| 82.4 | 53.5 nM | K([γGlu-C20 diacid])CNTATCATQRLARFLRHSSPNFGAIPSSTNVGPNTY-NH2 (disulfide 2-7; N-terminus assumed; SMILES CC[C@H](C)[C@H](NC(=O)[C@H](C)NC(=O)CNC(=O)[C@H](Cc1ccccc1)NC(=O)[C@H](CC(N)=O)NC(=O)[C@@H]1CCCN1C(=O)[C@H](CO)NC(=O)[C@H](CO)NC(=O)[C@H](Cc1c[nH]cn1)NC(=O)[C@H](CCCNC(=N)N)NC(=O)[C@H](CC(C)C)NC(=O)[C@H](Cc1ccccc1)NC(=O)[C@H](CCCNC(=N)N)NC(=O)[C@H](C)NC(=O)[C@H](CC(C)C)NC(=O)[C@H](CCCNC(=N)N)NC(=O)[C@H](CCC(N)=O)NC(=O)[C@@H](NC(=O)[C@H](C)NC(=O)[C@@H]1CSSC[C@H](NC(=O)[C@@H](N)CCCCNC(=O)CC[C@H](NC(=O)CCCCCCCCCCCCCCCCCCC(=O)O)C(=O)O)C(=O)N[C@@H](CC(N)=O)C(=O)N[C@@H]([C@@H](C)O)C(=O)N[C@@H](C)C(=O)N[C@@H]([C@@H](C)O)C(=O)N1)[C@@H](C)O)C(=O)N1CCC[C@H]1C(=O)N[C@@H](CO)C(=O)N[C@@H](CO)C(=O)N[C@H](C(=O)N[C@@H](CC(N)=O)C(=O)N[C@H](C(=O)NCC(=O)N1CCC[C@H]1C(=O)N[C@@H](CC(N)=O)C(=O)N[C@H](C(=O)N[C@@H](Cc1ccc(O)cc1)C(N)=O)[C@@H](C)O)C(C)C)[C@@H](C)O, also called compound 65) |
| 37.5 | 31.1 nM | K([γGlu-C20 diacid])CNTATCATQRLAEFLRHSSPNFGAIPSSTNVGSRTY-NH2 (disulfide 2-7; N-terminus assumed; SMILES CC[C@H](C)[C@H](NC(=O)[C@H](C)NC(=O)CNC(=O)[C@H](Cc1ccccc1)NC(=O)[C@H](CC(N)=O)NC(=O)[C@@H]1CCCN1C(=O)[C@H](CO)NC(=O)[C@H](CO)NC(=O)[C@H](Cc1c[nH]cn1)NC(=O)[C@H](CCCNC(=N)N)NC(=O)[C@H](CC(C)C)NC(=O)[C@H](Cc1ccccc1)NC(=O)[C@H](CCC(=O)O)NC(=O)[C@H](C)NC(=O)[C@H](CC(C)C)NC(=O)[C@H](CCCNC(=N)N)NC(=O)[C@H](CCC(N)=O)NC(=O)[C@@H](NC(=O)[C@H](C)NC(=O)[C@@H]1CSSC[C@H](NC(=O)[C@@H](N)CCCCNC(=O)CC[C@H](NC(=O)CCCCCCCCCCCCCCCCCCC(=O)O)C(=O)O)C(=O)N[C@@H](CC(N)=O)C(=O)N[C@@H]([C@@H](C)O)C(=O)N[C@@H](C)C(=O)N[C@@H]([C@@H](C)O)C(=O)N1)[C@@H](C)O)C(=O)N1CCC[C@H]1C(=O)N[C@@H](CO)C(=O)N[C@@H](CO)C(=O)N[C@H](C(=O)N[C@@H](CC(N)=O)C(=O)N[C@H](C(=O)NCC(=O)N[C@@H](CO)C(=O)N[C@@H](CCCNC(=N)N)C(=O)N[C@H](C(=O)N[C@@H](Cc1ccc(O)cc1)C(N)=O)[C@@H](C)O)C(C)C)[C@@H](C)O, also called compound 51) |
| 118 | 50.7 nM | K([γGlu-C20 diacid])CNTATCATQRLANFLRHSSPNFGAIPSSTNVGHNTY-NH2 (disulfide 2-7; N-terminus assumed; SMILES CC[C@H](C)[C@H](NC(=O)[C@H](C)NC(=O)CNC(=O)[C@H](Cc1ccccc1)NC(=O)[C@H](CC(N)=O)NC(=O)[C@@H]1CCCN1C(=O)[C@H](CO)NC(=O)[C@H](CO)NC(=O)[C@H](Cc1c[nH]cn1)NC(=O)[C@H](CCCNC(=N)N)NC(=O)[C@H](CC(C)C)NC(=O)[C@H](Cc1ccccc1)NC(=O)[C@H](CC(N)=O)NC(=O)[C@H](C)NC(=O)[C@H](CC(C)C)NC(=O)[C@H](CCCNC(=N)N)NC(=O)[C@H](CCC(N)=O)NC(=O)[C@@H](NC(=O)[C@H](C)NC(=O)[C@@H]1CSSC[C@H](NC(=O)[C@@H](N)CCCCNC(=O)CC[C@H](NC(=O)CCCCCCCCCCCCCCCCCCC(=O)O)C(=O)O)C(=O)N[C@@H](CC(N)=O)C(=O)N[C@@H]([C@@H](C)O)C(=O)N[C@@H](C)C(=O)N[C@@H]([C@@H](C)O)C(=O)N1)[C@@H](C)O)C(=O)N1CCC[C@H]1C(=O)N[C@@H](CO)C(=O)N[C@@H](CO)C(=O)N[C@H](C(=O)N[C@@H](CC(N)=O)C(=O)N[C@H](C(=O)NCC(=O)N[C@@H](Cc1c[nH]cn1)C(=O)N[C@@H](CC(N)=O)C(=O)N[C@H](C(=O)N[C@@H](Cc1ccc(O)cc1)C(N)=O)[C@@H](C)O)C(C)C)[C@@H](C)O, also called compound 77) [N^ε1-[(4S)-4-carboxy-4-(19-carboxynonadecanoylamino)butanoyl]-[Arg17,Pro21,Pro27,His34]-h-amylin] |
| 46.1 | 36.4 nM | K([γGlu-C20 diacid])CNTATCATQRLANFLRHSSPNFGAIPSSTNVGRNTY-NH2 (disulfide 2-7; N-terminus assumed; SMILES CC[C@H](C)[C@H](NC(=O)[C@H](C)NC(=O)CNC(=O)[C@H](Cc1ccccc1)NC(=O)[C@H](CC(N)=O)NC(=O)[C@@H]1CCCN1C(=O)[C@H](CO)NC(=O)[C@H](CO)NC(=O)[C@H](Cc1c[nH]cn1)NC(=O)[C@H](CCCNC(=N)N)NC(=O)[C@H](CC(C)C)NC(=O)[C@H](Cc1ccccc1)NC(=O)[C@H](CC(N)=O)NC(=O)[C@H](C)NC(=O)[C@H](CC(C)C)NC(=O)[C@H](CCCNC(=N)N)NC(=O)[C@H](CCC(N)=O)NC(=O)[C@@H](NC(=O)[C@H](C)NC(=O)[C@@H]1CSSC[C@H](NC(=O)[C@@H](N)CCCCNC(=O)CC[C@H](NC(=O)CCCCCCCCCCCCCCCCCCC(=O)O)C(=O)O)C(=O)N[C@@H](CC(N)=O)C(=O)N[C@@H]([C@@H](C)O)C(=O)N[C@@H](C)C(=O)N[C@@H]([C@@H](C)O)C(=O)N1)[C@@H](C)O)C(=O)N1CCC[C@H]1C(=O)N[C@@H](CO)C(=O)N[C@@H](CO)C(=O)N[C@H](C(=O)N[C@@H](CC(N)=O)C(=O)N[C@H](C(=O)NCC(=O)N[C@@H](CCCNC(=N)N)C(=O)N[C@@H](CC(N)=O)C(=O)N[C@H](C(=O)N[C@@H](Cc1ccc(O)cc1)C(N)=O)[C@@H](C)O)C(C)C)[C@@H](C)O, also called compound 79) [N^ε1-[(4S)-4-carboxy-4-(19-carboxynonadecanoylamino)butanoyl]-[Arg17,Pro21,Pro27,Arg34]-h-amylin] |
| 146 | 137 nM | K([γGlu-C20 diacid])CNTATCATQRLARFLRHSSPNFGAIPSSTNVGSNTY-NH2 (disulfide 2-7; N-terminus assumed; SMILES CC[C@H](C)[C@H](NC(=O)[C@H](C)NC(=O)CNC(=O)[C@H](Cc1ccccc1)NC(=O)[C@H](CC(N)=O)NC(=O)[C@@H]1CCCN1C(=O)[C@H](CO)NC(=O)[C@H](CO)NC(=O)[C@H](Cc1c[nH]cn1)NC(=O)[C@H](CCCNC(=N)N)NC(=O)[C@H](CC(C)C)NC(=O)[C@H](Cc1ccccc1)NC(=O)[C@H](CCCNC(=N)N)NC(=O)[C@H](C)NC(=O)[C@H](CC(C)C)NC(=O)[C@H](CCCNC(=N)N)NC(=O)[C@H](CCC(N)=O)NC(=O)[C@@H](NC(=O)[C@H](C)NC(=O)[C@@H]1CSSC[C@H](NC(=O)[C@@H](N)CCCCNC(=O)CC[C@H](NC(=O)CCCCCCCCCCCCCCCCCCC(=O)O)C(=O)O)C(=O)N[C@@H](CC(N)=O)C(=O)N[C@@H]([C@@H](C)O)C(=O)N[C@@H](C)C(=O)N[C@@H]([C@@H](C)O)C(=O)N1)[C@@H](C)O)C(=O)N1CCC[C@H]1C(=O)N[C@@H](CO)C(=O)N[C@@H](CO)C(=O)N[C@H](C(=O)N[C@@H](CC(N)=O)C(=O)N[C@H](C(=O)NCC(=O)N[C@@H](CO)C(=O)N[C@@H](CC(N)=O)C(=O)N[C@H](C(=O)N[C@@H](Cc1ccc(O)cc1)C(N)=O)[C@@H](C)O)C(C)C)[C@@H](C)O, also called compound 83) [N^ε1-[(4S)-4-carboxy-4-(19-carboxynonadecanoylamino)butanoyl]-[Arg14,Arg17,Pro21,Pro27]-h-amylin] |
| 45.2 | 31.4 nM | K([γGlu-C20 diacid])CNTATCATQRLANFLRHSSPNFGAIPSSTNVGSHTY-NH2 (disulfide 2-7; N-terminus assumed; SMILES CC[C@H](C)[C@H](NC(=O)[C@H](C)NC(=O)CNC(=O)[C@H](Cc1ccccc1)NC(=O)[C@H](CC(N)=O)NC(=O)[C@@H]1CCCN1C(=O)[C@H](CO)NC(=O)[C@H](CO)NC(=O)[C@H](Cc1c[nH]cn1)NC(=O)[C@H](CCCNC(=N)N)NC(=O)[C@H](CC(C)C)NC(=O)[C@H](Cc1ccccc1)NC(=O)[C@H](CC(N)=O)NC(=O)[C@H](C)NC(=O)[C@H](CC(C)C)NC(=O)[C@H](CCCNC(=N)N)NC(=O)[C@H](CCC(N)=O)NC(=O)[C@@H](NC(=O)[C@H](C)NC(=O)[C@@H]1CSSC[C@H](NC(=O)[C@@H](N)CCCCNC(=O)CC[C@H](NC(=O)CCCCCCCCCCCCCCCCCCC(=O)O)C(=O)O)C(=O)N[C@@H](CC(N)=O)C(=O)N[C@@H]([C@@H](C)O)C(=O)N[C@@H](C)C(=O)N[C@@H]([C@@H](C)O)C(=O)N1)[C@@H](C)O)C(=O)N1CCC[C@H]1C(=O)N[C@@H](CO)C(=O)N[C@@H](CO)C(=O)N[C@H](C(=O)N[C@@H](CC(N)=O)C(=O)N[C@H](C(=O)NCC(=O)N[C@@H](CO)C(=O)N[C@@H](Cc1c[nH]cn1)C(=O)N[C@H](C(=O)N[C@@H](Cc1ccc(O)cc1)C(N)=O)[C@@H](C)O)C(C)C)[C@@H](C)O, also called compound 60) [N^ε1-[(4S)-4-carboxy-4-(19-carboxynonadecanoylamino)butanoyl]-[Arg17,Pro21,Pro27,His35]-h-amylin] |
